From patent US20240094221A1, “METHOD FOR PREDICTING THE FERTILITY POTENTIAL OF A FEMALE SUBJECT” (Rigshospitalet, priority 2020, published 2024)
“Also recorded” adds a separate entry of the source.

System: female C57BL/6 mice
Test: In vivo mice fertility study with RANKL inducer PTH
Conditions: vs vehicle
Text: Twelve (12) female C57BL/6 mice will be allocated to two treatment groups (n=6, n=6) and administered with test article according to table 1. On study day 7, all females of each treatment group+3 male C57BL/6 mice will be allocated to the fertility study. In the fertility study pairs of 2 females will be housed with 1 male for a period of 5 days. During the 5 days all females are observed daily for vaginal plugs at least once per day. Administration of test articles will continue according to table 1 during the fertility study (days 7 to 11). Presence of vaginal plug, apparent pregnancy, and litter size will be recorded for each female. Females and litter will be terminated at the end of the fertility study and the weight of the pups will be determined.
Administration of test article i.p. (group 1) or vehicle i.p. (group 2) will be conducted 2 times a week for a period of 12 days. • Gr.1: 6 mice, i.p. dosing 2 times weekly for 12 days • Gr.2: 6 mice, i.p. dosing 2 times weekly for 12 days
One blood sample will be harvested on study day 12 from all female mice in the study. The blood samples will be drawn by sublingual vein puncture.
Termination: • female mice from the fertility study, will be terminated on nominal study day 12. Twelwe (12) mice will be euthanized after giving birth to litters

B1: PTH: Parathyroidea hormone; well-characterized RANKL inducer (protein, UniProt P01270 32-115, looked up)
Parathyroid hormone: SVSEIQLMHNLGKHLNSMERVEWLRKKLQDVHNFVALGAPLAPRDAGSQRPRKKEDNVLVESHEKSLGEADKADVNVLTKAKSQ
modifications: Parathyroid hormone
notes: Parathyroidea hormone; well-characterized RANKL inducer
pregnancy rate (PTH 5 μg/kg i.p., females paired with WT males, FIG. 14A): increased; also recorded: doubled
number of pups (PTH 5 μg/kg i.p., females paired with WT males, FIG. 14B): increased
number of pups per female (PTH 5 μg/kg i.p., females paired with WT males, FIG. 14C): increased
ovary weight (short-term PTH 5 μg/kg i.p., healthy female mice, p<0.05, data not shown): small but significant effect
